The source of these data is the supplement of paper PMC5998384.

Data set [1] relates to HeLa Kyoto. The data set can be described thus: solubility in G1/S (NP-40 vs SDS abundance) (log2 ratio); higher = more soluble. Particulars: cell cycle stage: G1/S.
For data set [2], the system named is HeLa Kyoto. The data set can be described thus: melting temperature (median over replicates), in situ; higher = more thermally stable.
Data set [3] concerns HeLa Kyoto. Nature of the data set: solubility change mitosis vs G1/S (difference of NP-40 vs SDS log2 ratios) (log2 ratio difference); higher = more soluble in mitosis.
The test system of data set [4] is HeLa Kyoto. Nature of the data set: thermal stability score vs G1/S (z-score of summed log2 fold changes over temperatures); higher = more thermally stable than in G1/S.
The mark [5] stands for this setting: cell cycle stage: early G1 (4.5 h after nocodazole release).
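Throughout, for melting temperature (median over replicates), in situ: HeLa Kyoto cells synchronized by double thymidine or nocodazole block, proteins quantified by TMT10plex mass spectrometry, three independent biological replicates.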
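Throughout, for solubility change mitosis vs G1/S (difference of NP-40 vs SDS log2 ratios): synchronized HeLa Kyoto cells (double thymidine block for G1/S, nocodazole release for mitosis), protein amounts in NP-40 versus SDS lysates quantified by mass spectrometry, three biological replicates.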
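Throughout, for solubility in G1/S (NP-40 vs SDS abundance): HeLa Kyoto cells arrested at G1/S by double thymidine block, proteins quantified by TMT10plex mass spectrometry in mild NP-40 versus SDS extracts, three biological replicates.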
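Throughout, for thermal stability score vs G1/S (z-score of summed log2 fold changes over temperatures): synchronized HeLa Kyoto cells, proteins quantified by TMT10plex mass spectrometry, three biological replicates, mitosis taken 0.5 h after nocodazole release, G1/S directly after double thymidine block.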

HDGFRP2, sequence (chain, as listed by the source): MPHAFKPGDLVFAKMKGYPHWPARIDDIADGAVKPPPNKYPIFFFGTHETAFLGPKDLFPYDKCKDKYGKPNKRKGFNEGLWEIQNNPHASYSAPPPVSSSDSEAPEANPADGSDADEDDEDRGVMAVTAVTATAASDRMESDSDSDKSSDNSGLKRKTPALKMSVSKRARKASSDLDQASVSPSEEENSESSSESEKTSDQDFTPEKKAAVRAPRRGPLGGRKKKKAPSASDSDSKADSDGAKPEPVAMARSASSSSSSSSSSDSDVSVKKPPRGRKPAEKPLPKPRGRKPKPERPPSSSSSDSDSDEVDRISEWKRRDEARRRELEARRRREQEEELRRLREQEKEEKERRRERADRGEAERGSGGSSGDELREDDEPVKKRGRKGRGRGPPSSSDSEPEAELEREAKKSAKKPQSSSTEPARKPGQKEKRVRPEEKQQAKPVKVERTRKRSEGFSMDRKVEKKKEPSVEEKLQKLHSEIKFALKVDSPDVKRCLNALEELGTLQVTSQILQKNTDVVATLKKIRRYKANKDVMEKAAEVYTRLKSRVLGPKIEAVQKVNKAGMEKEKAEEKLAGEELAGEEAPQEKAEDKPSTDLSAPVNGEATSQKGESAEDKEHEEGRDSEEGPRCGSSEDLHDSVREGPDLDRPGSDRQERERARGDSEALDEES

Turning to “MSAHNRGTELDLSWISKIQVNHPAVLRRAEQIQARRTVKKEWQAAWLLKAVTFIDLTTLSGDDTSSNIQRLCYKAKYPIREDLLKALNMHDKGITTAAVCVYPARVCDAVKALKAAGCNIPVASVAAGFPAGQTHLKTRLEEIRLAVEDGATEIDVVINRSLVLTGQWEALYDEIRQFRKACGEAHLKTILATGELGTLTNVYKASMIAMMAGSDFIKTSTGKETVNATFPVAIVMLRAIRDFFWKTGNKIGFKPAGGIRSAKDSLAWLSLVKEELGDEWLKPELFRIGASTLLSDIERQIYHHVTGRYAAYHDLPMS [DERA]”, the “solubility in G1/S (log2)” value in the data set with HeLa Kyoto [1] was -0.131. Moreover, the melting temperature in the data set on HeLa Kyoto [2] (cell cycle stage: G1/S) and with HeLa Kyoto [2] (cell cycle stage: mitosis) was 56.1 °C in each case. Moreover, the “solubility change mitosis (log2)” value in the data set on HeLa Kyoto [3] was -0.0424. Moreover, the thermal stability score with HeLa Kyoto [4] (setting [5]) is -3.39; in the data set with HeLa Kyoto [4] (cell cycle stage: mitosis) it was -3.58.
As for “MADPWQECMDYAVTLARQAGEVVCEAIKNEMNVMLKSSPVDLVTATDQKVEKMLISSIKEKYPSHSFIGEESVAAGEKSILTDNPTWIIDPIDGTTNFVHRFPFVAVSIGFAVNKKIEFGVVYSCVEGKMYTARKGKGAFCNGQKLQVSQQEDITKSLLVTELGSSRTPETVRMVLSNMEKLFCIPVHGIRSVGTAAVNMCLVATGGADAYYEMGIHCWDVAGAGIIVTEAGGVLMDVTGGPFDLMSRRVIAANNRILAERIAKEIQVIPLQRDDED [IMPA1]”, the “solubility in G1/S (log2)” value with HeLa Kyoto [1] came to 0.0966. In addition, the melting temperature with HeLa Kyoto [2] (cell cycle stage: G1/S) turned out to be 59.9 °C; in the data set on HeLa Kyoto [2] (cell cycle stage: mitosis), 61.1 °C. For the same substance, in the data set on HeLa Kyoto [3], the “solubility change mitosis (log2)” value is -0.19. The thermal stability score was -1.12 with HeLa Kyoto [4] (setting [5]) and -2.39 with HeLa Kyoto [4] (cell cycle stage: mitosis).
As to HDGFRP2, the “solubility in G1/S (log2)” value in the data set on HeLa Kyoto [1] was -0.376. The melting temperature in the data set on HeLa Kyoto [2] (cell cycle stage: G1/S) was determined as 54.3 °C; in the data set on HeLa Kyoto [2] (cell cycle stage: mitosis) it was 53.9 °C. Also, in the data set with HeLa Kyoto [3], the “solubility change mitosis (log2)” value stood at 0.275. Moreover, the figures for the thermal stability score with HeLa Kyoto [4] (setting [5]) and in the data set with HeLa Kyoto [4] (cell cycle stage: mitosis) were -0.27 and -1.13, respectively.
“MDPAARVVRALWPGGCALAWRLGGRPQPLLPTQSRAGFAGAAGGPSPVAAARKGSPRLLGAAALALGGALGLYHTARWHLRAQDLHAERSAAQLSLSSRLQLTLYQYKTCPFCSKVRAFLDFHALPYQVVEVNPVRRAEIKFSSYRKVPILVAQEGESSQQLNDSSVIISALKTYLVSGQPLEEIITYYPAMKAVNEQGKEVTEFGNKYWLMLNEKEAQQVYGGKEARTEEMKWRQWADDWLVHLISPNVYRTPTEALASFDYIVREGKFGAVEGAVAKYMGAAAMYLISKRLKSRHRLQDNVREDLYEAADKWVAAVGKDRPFMGGQKPNLADLAVYGVLRVMEGLDAFDDLMQHTHIQPWYLRVERAITEASPAH [PTGES2]”: in the data set on HeLa Kyoto [1], the “solubility in G1/S (log2)” value turned out to be 0.0509. Moreover, the results for the melting temperature in the data set on HeLa Kyoto [2] (cell cycle stage: G1/S) and in the data set with HeLa Kyoto [2] (cell cycle stage: mitosis) were 54.6 °C and 54.9 °C, respectively. Besides, in the data set on HeLa Kyoto [3], the “solubility change mitosis (log2)” value is -0.0374. Also, the thermal stability score came out at 1.5 in the data set on HeLa Kyoto [4] (setting [5]) and 0.796 with HeLa Kyoto [4] (cell cycle stage: mitosis).
For the substance “MAQYKGAASEAGRAMHLMKKREKQREQMEQMKQRIAEENIMKSNIDKKFSAHYDAVEAELKSSTVGLVTLNDMKAKQEALVKEREKQLAKKEQSKELQMKLEKLREKERKKEAKRKISSLSFTLEEEEEGGEEEEEAAMYEEEMEREEITTKKRKLGKNPDVDTSFLPDRDREEEENRLREELRQEWEAKQEKIKSEEIEITFSYWDGSGHRRTVKMRKGNTMQQFLQKALEILRKDFSELRSAGVEQLMYIKEDLIIPHHHSFYDFIVTKARGKSGPLFNFDVHDDVRLLSDATVEKDESHAGKVVLRSWYEKNKHIFPASRWEPYDPEKKWDKYTIR [FAM50A]”, in the data set on HeLa Kyoto [1], the “solubility in G1/S (log2)” value was determined as 0.0519. For the same substance, the melting temperature in the data set on HeLa Kyoto [2] (cell cycle stage: G1/S) was determined as 48.4 °C; in the data set on HeLa Kyoto [2] (cell cycle stage: mitosis), 50.3 °C. Also, the “solubility change mitosis (log2)” value with HeLa Kyoto [3] was -0.0697. Also, the thermal stability score stood at 1.03 in the data set on HeLa Kyoto [4] (setting [5]) and 2.04 in the data set with HeLa Kyoto [4] (cell cycle stage: mitosis).
For the substance “MEGAGYRVVFEKGGVYLHTSAKKYQDRDSLIAGVIRVVEKDNDVLLHWAPVEEAGDSTQILFSKKDSSGGDSCASEEEPTFDPGYEPDWAVISTVRPQLCHSEPTRGAEPSCPQGSWAFSVSLGELKSIRRSKPGLSWAYLVLVTQAGGSLPALHFHRGGTRALLRVLSRYLLLASSPQDSRLYLVFPHDSSALSNSFHHLQLFDQDSSNVVSRFLQDPYSTTFSSFSRVTNFFRGALQPQPEGAASDLPPPPDDEPEPGFEVISCVELGPRPTVERGPPVTEEEWARHVGPEGRLQQVPELKNRIFSGGLSPSLRREAWKFLLGYLSWEGTAEEHKAHIRKKTDEYFRMKLQWKSVSPEQERRNSLLHGYRSLIERDVSRTDRTNKFYEGPENPGLGLLNDILLTYCMYHFDLGYVQGMSDLLSPILYVIQNEVDAFWCFCGFMELVQGNFEESQETMKRQLGRLLLLLRVLDPLLCDFLDSQDSGSLCFCFRWLLIWFKREFPFPDVLRLWEVLWTGLPGPNLHLLVACAILDMERDTLMLSGFGSNEILKHINELTMKLSVEDVLTRAEALHRQLTACPELPHNVQEILGLAPPAEPHSPSPTASPLPLSPTRAPPTPPPSTDTAPQPDSSLEILPEEEDEGADS [TBC1D17]”, the “solubility in G1/S (log2)” value with HeLa Kyoto [1] is -0.0906. The figures for the melting temperature with HeLa Kyoto [2] (cell cycle stage: G1/S) and in the data set with HeLa Kyoto [2] (cell cycle stage: mitosis) were 51.4 °C and 50.7 °C, respectively. Further, the “solubility change mitosis (log2)” value in the data set on HeLa Kyoto [3] is -0.0875. Also, the values for the thermal stability score in the data set with HeLa Kyoto [4] (setting [5]) and with HeLa Kyoto [4] (cell cycle stage: mitosis) were -0.527 and -0.608, respectively.
Consider “MMHFKSGLELTELQNMTVPEDDNISNDSNDFTEVENGQINSKFISDRESRRSLTNSHLEKKKCDEYIPGTTSLGMSVFNLSNAIMGSGILGLAFALANTGILLFLVLLTSVTLLSIYSINLLLICSKETGCMVYEKLGEQVFGTTGKFVIFGATSLQNTGAMLSYLFIVKNELPSAIKFLMGKEETFSAWYVDGRVLVVIVTFGIILPLCLLKNLGYLGYTSGFSLSCMVFFLIVVIYKKFQIPCIVPELNSTISANSTNADTCTPKYVTFNSKTVYALPTIAFAFVCHPSVLPIYSELKDRSQKKMQMVSNISFFAMFVMYFLTAIFGYLTFYDNVQSDLLHKYQSKDDILILTVRLAVIVAVILTVPVLFFTVRSSLFELAKKTKFNLCRHTVVTCILLVVINLLVIFIPSMKDIFGVVGVTSANMLIFILPSSLYLKITDQDGDKGTQRIWAALFLGLGVLFSLVSIPLVIYDWACSSSSDEGH [SLC38A1]”, for which the “solubility in G1/S (log2)” value in the data set with HeLa Kyoto [1] was -0.379. For the same substance, the melting temperature was 57.8 °C with HeLa Kyoto [2] (cell cycle stage: G1/S) and 59.4 °C in the data set on HeLa Kyoto [2] (cell cycle stage: mitosis). Besides, the “solubility change mitosis (log2)” value in the data set with HeLa Kyoto [3] is -0.24. The thermal stability score in the data set on HeLa Kyoto [4] (setting [5]) is -1.68; in the data set with HeLa Kyoto [4] (cell cycle stage: mitosis) it was -3.89.
